Measured values published in patent US20100169988A1 (published 2010).

B1: Fructose-bisphosphate aldolase A (Muscle-type aldolase) (Aldolase 1) (enzyme, mouse, UniProt P05064 2-364, looked up)
chain: PHPYPALTPEQKKELSDIAHRIVAPGKGILAADESTGSIAKRLQSIGTENTEENRRFYRQLLLTADDRVNPCIGGVILFHETLYQKADDGRPFPQVIKSKGGVVGIKVDKGVVPLAGTNGETTTQGLDGLSERCAQYKKDGADFAKWRCVLKIGEHTPSALAIMENANVLARYASICQQNGIVPIVEPEILPDGDHDLKRCQYVTEKVLAAVYKALSDHHVYLEGTLLKPNMVTPGHACTQKFSNEEIAMATVTALRRTVPPAVTGVTFLSGGQSEEEASINLNAINKCPLLKPWALTFSYGRALQASALKAWGGKKENLKAAQEEYIKRALANSLACQGKYTPSGQSGAAASESLFISNHAY
B2: Aconitate hydratase; mitochondrial precursor (Citrate hydro-lyase) (enzyme, mouse, UniProt Q99KI0 28-780, looked up)
chain: QRAKVAMSHFEPSEYIRYDLLEKNINIVRKRLNRPLTLSEKIVYGHLDDPANQEIERGKTYLRLRPDRVAMQDATAQMAMLQFISSGLPKVAVPSTIHCDHLIEAQVGGEKDLRRAKDINQEVYNFLATAGAKYGVGFWRPGSGIIHQIILENYAYPGVLLIGTDSHTPNGGGLGGICIGVGGADAVDVMAGIPWELKCPKVIGVKLTGSLSGWTSPKDVILKVAGILTVKGGTGAIVEYHGPGVDSISCTGMATICNMGAEIGATTSVFPYNHRMKKYLSKTGRTDIANLAEEFKDHLVPDPGCQYDQVIEINLNELKPHINGPFTPDLAHPVADVGTVAEKEGWPLDIRVGLIGSCTNSSYEDMGRSAAVAKQALAHGLKCKSQFTITPGSEQIRATIERDGYAQILRDVGGIVLANACGPCIGQWDRKDIKKGEKNTIVTSYNRNFTGRNDANPETHAFVTSPEIVTALAIAGTLKFNPETDFLTGKDGKKFKLEAPDADELPRSDFDPGQDTYQHPPKDSSGQRVDVSPTSQRLQLLEPFDKWDGKDLEDLQILIKVKGKCTTDHISAAGPWLKFRGHLDNISNNLLIGAINIENGKANSVRNAVTQEFGPVPDTARYYKKHGIRWVVIGDENYGEGSSREHAALEPRHLGGRAIITKSFARIHETNLKKQGLLPLTFADPSDYNKIHPVDKLTIQGLKDFAPGKPLKCVIKHPNGTQETILLNHTFNETQIEWFRAGSALNRMKELQQ
notes: also called Aconitase
B3: Dynamin-1 (enzyme, mouse, UniProt P39053 1-867, looked up)
chain: MGNRGMEDLIPLVNRLQDAFSAIGQNADLDLPQIAVVGGQSAGKSSVLENFVGRDFLPRGSGIVTRRPLVLQLVNSTTEYAEFLHCKGKKFTDFEEVRLEIEAETDRVTGTNKGISPVPINLRVYSPHVLNLTLVDLPGMTKVPVGDQPPDIEFQIRDMLMQFVTKENCLILAVSPANSDLANSDALKIAKEVDPQGQRTIGVITKLDLMDEGTDARDVLENKLLPLRRGYIGVVNRSQKDIDGKKDITAALAAERKFFLSHPSYRHLADRMGTPYLQKVLNQQLTNHIRDTLPGLRNKLQSQLLSIEKEVDEYKNFRPDDPARKTKALLQMVQQFAVDFEKRIEGSGDQIDTYELSGGARINRIFHERFPFELVKMEFDEKELRREISYAIKNIHGIRTGLFTPDMAFETIVKKQVKKIREPCLKCVDMVISELISTVRQCTKKLQQYPRLREEMERIVTTHIREREGRTKEQVMLLIDIELAYMNTNHEDFIGFANAQQRSNQMNKKKTSGNQDEILVIRKGWLTINNIGIMKGGSKEYWFVLTAENLSWYKDDEEKEKKYMLSVDNLKLRDVEKGFMSSKHIFALFNTEQRNVYKDYRQLELACETQEEVDSWKASFLRAGVYPERVGDKEKASETEENGSDSFMHSMDPQLERQVETIRNLVDSYMAIVNKTVRDLMPKTIMHLMINNTKEFIFSELLANLYSCGDQNTLMEESAEQAQRRDEMLRMYHALKEALSIIGDINTTTVSTPMPPPVDDSWLQVQSVPAGRRSPTSSPTPQRRAPAVPPARPGSRGPAPGPPPAGSALGGAPPVPSRPGASPDPFGPPPQVPSRPNRAPPGVPSLGAWRLNSPQGKHENRAGKARL
notes: also called DYN1_MOUSE; Dynamin I
B4: 14-3-3 protein zeta/delta (Protein kinase C inhibitor protein-1) (KCIP-1) (SEZ-2) (other, mouse, UniProt P63101 1-245, looked up)
chain: MDKNELVQKAKLAEQAERYDDMAACMKSVTEQGAELSNEERNLLSVAYKNVVGARRSSWRVVSSIEQKTEGAEKKQQMAREYREKIETELRDICNDVLSLLEKFLIPNASQPESKVFYLKMKGDYYRYLAEVAAGDDKKGIVDQSQQAYQEAFEISKKEMQPTHPIRLGLALNFSVFYYEILNSPEKACSLAKTAFDEAIAELDTLSEESYKDSTLIMQLLRDNLTLWTSDTQGDEAEAGEGGEN
B5: Malate dehydrogenase; mitochondrial precursor (enzyme, mouse, UniProt P08249 25-338, looked up)
chain: AKVAVLGASGGIGQPLSLLLKNSPLVSRLTLYDIAHTPGVAADLSHIETRANVKGYLGPEQLPDCLKGCDVVVIPAGVPRKPGMTRDDLFNTNATIVATLTAACAQHCPEAMVCIIANPVNSTIPITAEVFKKHGVYNPNKIFGVTTLDIVRANTFVAELKGLDPARVNVPVIGGHAGKTIIPLISQCTPKVDFPQDQLATLTGRIQEAGTEVVKAKAGAGSATLSMAYAGARFVFSLVDAMNGKEGVVECSFVQSKETECTYFSTPLLLGKKGLEKNLGIGKITPFEEKMIAEAIPELKASIKKGEDFVKNMK
B6: 14-3-3 protein gamma (other, mouse, UniProt P61982 1-247, looked up)
chain: MVDREQLVQKARLAEQAERYDDMAAAMKNVTELNEPLSNEERNLLSVAYKNVVGARRSSWRVISSIEQKTSADGNEKKIEMVRAYREKIEKELEAVCQDVLSLLDNYLIKNCSETQYESKVFYLKMKGDYYRYLAEVATGEKRATVVESSEKAYSEAHEISKEHMQPTHPIRLGLALNYSVFYYEIQNAPEQACHLAKTAFDDAIAELDTLNEDSYKDSTLIMQLLRDNLTLWTSDQQDDDGGEGNN
notes: also called 14-3-3 γ
B7: Phosphatidylethanolamine-binding protein (PEBP) (other, mouse, UniProt P70296 2-187, looked up)
chain: AADISQWAGPLCLQEVDEPPQHALRVDYAGVTVDELGKVLTPTQVMNRPSSISWDGLDPGKLYTLVLTDPDAPSRKDPKFREWHHFLVVNMKGNDISSGTVLSDYVGSGPPSGTGLHRYVWLVYEQEQPLSCDEPILSNKSGDNRGKFKVETFRKKYNLGAPVAGTCYQAEWDDYVPKLYEQLSGK
notes: also called PEBP1_MOUSE
B8: phosphoglycerate mutase 1 (enzyme, mouse, UniProt Q9DBJ1 1-254, looked up)
chain: MAAYKLVLIRHGESAWNLENRFSGWYDADLSPAGHEEAKRGGQALRDAGYEFDICFTSVQKRAIRTLWTVLDAIDQMWLPVVRTWRLNERHYGGLTGLNKAETAAKHGEAQVKIWRRSYDVPPPPMEPDHPFYSNISKDRRYADLTEDQLPSCESLKDTIARALPFWNEEIVPQIKEGKRVLIAAHGNSLRGIVKHLEGLSEEAIMELNLPTGIPIVYELDKNLKPIKPMQFLGDEETVRKAMEAVAAQGKVKK
notes: also called PGAM1_MOUSE
B9: Clathrin coat assembly protein AP180 (Clathrin coat-associated protein AP180) (91 kDa synaptosomal-associated protein) (other, mouse, UniProt Q61548 1-901, looked up)
chain: MSGQTLTDRIAAAQYSVTGSAVARAVCKATTHEVMGPKKKHLDYLIQATNETNVNIPQMADTLFERATNSSWVVVFKALVTTHHLMVHGNERFIQYLASRNTLFNLSNFLDKSGSHGYDMSTFIRRYSRYLNEKAFSYRQMAFDFARVKKGADGVMRTMVPEKLLKSMPILQGQIDALLEFDVHPNELTNGVINAAFMLLFKDLIKLFACYNDGVINLLEKFFEMKKGQCKDALEIYKRFLTRMTRVSEFLKVAEQVGIDKGDIPDLTQAPSSLMETLEQHLNTLEGKKPGNNEGSGAPSPLSKSSPATTVTSPNSTPAKTIDTSPPVDIFATASAAAPVSSAKPSSDLLDLQPDFSGAAAGAAAPVVPPSGGATAWGDLLGEDSLAALSSVPCEAPISDPFAPEPSPPTTTTEPASASASTTTAVTAVTTEVDLFGDAFAASPGEAPAASEGATAPATPAPVAAALDACSGNDPFAPSEGSAEAAPELDLFAMKPPETSAPVVTPTASTAPPVPATAPSPAPTAVAATAATTTAAAAATTTATTSAAAATTAAAPPALDIFGDLFDSAPEVAAAPKPDAAPSIDLFGTDAFSSPPRGASPVPESSLTADLLSVDAFAAPSPASTASPAKAESSGVIDLFGDAFGSGASETQPAPQAVSSSSASADLLAGFGGSFMAPSTTPVTPAQNNLLQPSFEAAFGTTPSTSSSSSFDPSVFDGLGDLLMPTMAPSGQPAPVSMVPPSPAMAASKGLGSDLDSSLASLVGNLGISGTTSKKGDLQWNAGEKKLTGGANWQPKVTPATWSAGVPPQGTVPPTSSVPPGAGAPSVGQPGAGFGMPPSGTGMTMMSQQPVMFAQPMMRPPFGAAAVPGTQLSPSPTPATQSPKKPPAKDPLADLNIKDFL
notes: also called AP180_MOUSE; Clathrin coat assembly protein Aβ180
B10: Plasma membrane calcium-transporting ATPase 2 (PMCA2) (enzyme, mouse, UniProt Q9R0K7 1-1198, looked up)
chain: MGDMTNSDFYSKNQRNESSHGGEFGCTMEELRSLMELRGTEAVVKIKETYGDTEAICRRLKTSPVEGLPGTAPDLEKRKQIFGQNFIPPKKPKTFLQLVWEALQDVTLIILEIAAIISLGLSFYHPPGESNEGCATAQGGAEDEGEAEAGWIEGAAILLSVICVVLVTAFNDWSKEKQFRGLQSRIEQEQKFTVVRAGQVVQIPVAEIVVGDIAQIKYGDLLPADGLFIQGNDLKIDESSLTGESDQVRKSVDKDPMLLSGTHVMEGSGRMVVTAVGVNSQTGIIFTLLGAGGEEEEKKDKKAKQQDGAAAMEMQPLKSAEGGDADDKKKANMHKKEKSVLQGKLTKLAVQIGKAGLVMSAITVIILVLYFTVDTFVVNKKPWLTECTPVYVQYFVKFFIIGVTVLVVAVPEGLPLAVTISLAYSVKKMMKDNNLVRHLDACETMGNATAICSDKTGTLTTNRMTVVQAYVGDVHYKEIPDPSSINAKTLELLVNAIAINSAYTTKILPPEKEGALPRQVGNKTECGLLGFVLDLRQDYEPVRSQMPEEKLYKVYTFNSVRKSMSTVIKMPDESFRMYSKGASEIVLKKCCKILSGAGEARVFRPRDRDEMVKKVIEPMACDGLRTICVAYRDFPSSPEPDWDNENDILNELTCICVVGIEDPVRPEVPEAIRKCQRAGITVRMVTGDNINTARAIAIKCGIIHPGEDFLCLEGKEFNRRIRNEKGEIEQERIDKIWPKLRVLARSSPTDKHTLVKGIIDSTHTEQRQVVAVTGDGTNDGPALKKADVGFAMGIAGTDVAKEASDIILTDDNFSSIVKAVMWGRNVYDSISKFLQFQLTVNVVAVIVAFTGACITQDSPLKAVQMLWVNLIMDTFASLALATEPPTETLLLRKPYGRNKPLISRTMMKNILGHAVYQLTLIFTLLFVGEKMFQIDSGRNAPLHSPPSEHYTIIFNTFVMMQLFNEINARKIHGERNVFDGIFRNPIFCTIVLGTFAIQIVIVQFGGKPFSCSPLQLDQWMWCIFIGLGELVWGQVIATIPTSRLKFLKEAGRLTQKEEIPEEELNEDVEEIDHAERELRRGQILWFRGLNRIQTQIRVVKAFRSSLYEGLEKPESRTSIHNFMAHPEFRIEDSQPHIPLIDDTDLEEDAALKQNSSPPSSLNKNNSAIDSGINLTTDTSKSATSSSPGSPIHSLETSL
notes: also called AT2B2_MOUSE

Molecular target: T1, APP-TAP-AICD (human, UniProt P05067 18-695)
Test: streptavidin purification of APP-TAP-AICD from brain homogenate; iTRAQ 116/114, transgenic mouse 75 vs control mouse 72; MALDI-TOF/TOF;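 further: relative protein abundance in the transgenic versus control pull-down, limited to proteins with high quality scores and above-average enrichment, without full normalization across the whole measurement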
Source text: Shown are all proteins that have high quality scores and are enriched above average in the m75 sample. Purified bait protein is given underlined. Other already known interaction partners of AICD or putatively biologically relevant proteins are given in bold. As full normalization over the entire measurement was not possible through the GPS explorer software suite, this conservative estimate had to be taken for determining the enriched vs. the non-enriched proteins. […] Ranking is in order of abundance ratio.

| iTRAQ ratio | Binder |
| --- | --- |
| 4.61 | B1 |
| 4.53 | B2 |
| 4.57 | B3 |
| 4.51 | B4 |
| 4.71 | B5 |
| 4.28 | B6 |
| 4.87 | B7 |

Molecular target: T1, APP-TAP-AICD
Test: streptavidin purification of APP-TAP-AICD from brain homogenate; LTQ-FT semiquantitative method, transgenic mouse 75 vs control mouse 72

| probability that this protein is enriched | Binder |
| --- | --- |
| 1 | B1 |
| 1 | B2 |
| 0.82 | B3 |
| 0.86 | B8 |
| 0.83 | B4 |
| 0.86 | B5 |
| 0.83 | B6 |
| 0.85 | B9 |
| 1 | B7 |
| 0.86 | B10 |
